Reference: article PMC3882317 (Cell reports, 2013)

Columns and labels:
Flag-tagged MePCE = biological target: T1, Flag-tagged MePCE (UniProt Q7L2J0 1-689); test: pull-down
T1 sequence (looked up): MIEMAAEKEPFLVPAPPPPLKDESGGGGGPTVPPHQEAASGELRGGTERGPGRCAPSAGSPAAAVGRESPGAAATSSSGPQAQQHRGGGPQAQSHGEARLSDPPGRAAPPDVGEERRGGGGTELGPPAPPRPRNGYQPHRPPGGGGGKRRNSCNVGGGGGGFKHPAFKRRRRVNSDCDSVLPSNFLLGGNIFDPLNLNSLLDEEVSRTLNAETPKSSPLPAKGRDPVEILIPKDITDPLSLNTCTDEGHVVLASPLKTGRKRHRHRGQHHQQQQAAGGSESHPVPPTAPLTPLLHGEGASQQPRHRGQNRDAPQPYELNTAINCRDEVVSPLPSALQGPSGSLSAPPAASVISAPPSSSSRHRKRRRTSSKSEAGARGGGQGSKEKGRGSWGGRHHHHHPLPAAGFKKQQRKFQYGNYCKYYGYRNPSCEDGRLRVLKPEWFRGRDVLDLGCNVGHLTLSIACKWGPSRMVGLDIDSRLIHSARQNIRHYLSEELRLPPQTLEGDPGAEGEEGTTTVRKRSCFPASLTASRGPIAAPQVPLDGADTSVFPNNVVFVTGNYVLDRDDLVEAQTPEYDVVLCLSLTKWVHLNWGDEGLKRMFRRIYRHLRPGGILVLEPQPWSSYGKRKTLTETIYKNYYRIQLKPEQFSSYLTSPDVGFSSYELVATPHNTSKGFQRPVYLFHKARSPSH

Flag-tagged Larp7 = biological target: T2, Flag-tagged Larp7 (UniProt Q4G0J3 1-582); test: pull-down
T2 sequence (looked up): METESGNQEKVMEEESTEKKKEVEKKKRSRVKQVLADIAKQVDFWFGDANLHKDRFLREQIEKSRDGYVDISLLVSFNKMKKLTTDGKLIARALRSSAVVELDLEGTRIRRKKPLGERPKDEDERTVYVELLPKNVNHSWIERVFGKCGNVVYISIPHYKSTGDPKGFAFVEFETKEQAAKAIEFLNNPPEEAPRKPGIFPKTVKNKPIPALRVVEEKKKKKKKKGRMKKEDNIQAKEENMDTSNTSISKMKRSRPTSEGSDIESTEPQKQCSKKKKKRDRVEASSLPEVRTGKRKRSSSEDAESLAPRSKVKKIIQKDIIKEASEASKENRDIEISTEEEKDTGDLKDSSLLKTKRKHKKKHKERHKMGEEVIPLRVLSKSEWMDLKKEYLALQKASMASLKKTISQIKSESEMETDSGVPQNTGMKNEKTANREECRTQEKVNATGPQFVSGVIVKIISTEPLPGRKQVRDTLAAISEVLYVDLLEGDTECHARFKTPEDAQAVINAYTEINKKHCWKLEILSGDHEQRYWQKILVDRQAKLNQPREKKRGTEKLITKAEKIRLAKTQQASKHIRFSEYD

B1: Strep-tagged PPM1G (enzyme, UniProt O15355 1-546, looked up)
chain: MGAYLSQPNTVKCSGDGVGAPRLPLPYGFSAMQGWRVSMEDAHNCIPELDSETAMFSVYDGHGGEEVALYCAKYLPDIIKDQKAYKEGKLQKALEDAFLAIDAKLTTEEVIKELAQIAGRPTEDEDEKEKVADEDDVDNEEAALLHEEATMTIEELLTRYGQNCHKGPPHSKSGGGTGEEPGSQGLNGEAGPEDSTRETPSQENGPTAKAYTGFSSNSERGTEAGQVGEPGIPTGEAGPSCSSASDKLPRVAKSKFFEDSEDESDEAEEEEEDSEECSEEEDGYSSEEAENEEDEDDTEEAEEDDEEEEEEMMVPGMEGKEEPGSDSGTTAVVALIRGKQLIVANAGDSRCVVSEAGKALDMSYDHKPEDEVELARIKNAGGKVTMDGRVNGGLNLSRAIGDHFYKRNKNLPPEEQMISALPDIKVLTLTDDHEFMVIACDGIWNVMSSQEVVDFIQSKISQRDENGELRLLSSIVEELLDQCLAPDTSGDGTGCDNMTCIIICFKPRNTAELQPESGKRKLEEVLSTEGAEENGNSDKKKKAKRD
Flag-tagged MePCE
  binding result: binds
Flag-tagged Larp7
  binding result: binds
